Data published in patent publication US11555069B2, “Cognitive function improving agent” (Kao Corporation, priority 2016, dated 2023).
Each block holds one molecule with its values, some of them ahead of it.

Tests used:
db/db mice [1] = experiment: Novel object recognition (long-term memory) test, Example 1; format: in vivo, mouse; conditions: db/db mice 30-week-old, i.p. twice a week, 15 days after start (after six administrations); GIP 5 nmol/kg, anti-GIP antibody 1 mg/kg; FIG. 3
Protocol: (§1) Six-week-old leptin receptor deficient C57BLKS/J male mice (db/db mice, Oriental Yeast Co., Ltd.) were transferred (room temperature: 23° C., humidity: 55±10%, light period: 7:00 to 19:00) and were fed with food and water ad libitum. The food was CE-2 (CLEA Japan, Inc.), and the mice were acclimated for 2 weeks under the above-mentioned environment and were then used for testing.
(§2) Mouse-derived GIP (manufactured by AnaSpec, Inc.) was dissolved in physiological saline at a concentration of 500 nM to give a GIP solution. […]
The test was performed 5 days before the start of the administration and 15 days after the start of the administration (after six administrations) to measure the long-term memory and learning ability (reference memory). […] On the following day, two identical objects (rubber objects wrapped with blue rubber tape: columns each having 4 cm diameter and 3.5 cm height) were placed in the box (at a position with a space of 10 cm in length and 10 cm in width from the wall), and the behavior of the mouse was video-recorded for 5 minutes to measure the number of recognitions (the number of times the mouse approached each object within 1 cm) (training trial, on the 14th day from the start of the administration). […] The score of long-term memory and learning ability was evaluated by the recognition rate of the novel object in the retention trial (see the following calculation formula). […]

db/db mice [2] = experiment: Y-maze (short-term memory) test, Example 1; format: in vivo, mouse; conditions: db/db mice 30-week-old, i.p. twice a week, 20 days after start (after seven administrations); GIP 5 nmol/kg, anti-GIP antibody 1 mg/kg; FIG. 2
Protocol: as §1, §2
(§3) The test was performed 10 days before the start of the administration and 20 days after the start of the administration (after seven administrations) to measure the short-term memory and learning ability (working memory). Each mouse was placed at an end of a plastic Y-maze (manufactured by Noldus Information Technology) in which the arms each have a length of 40 cm and a height of 12 cm and form an angle of 120° with each other, and the behavior of the mouse was video-recorded for 10 minutes to measure the order and the number of entries into the arms. The score of short-term memory and learning ability was evaluated by the spontaneous alternation behavior change rate (see the following calculation formula). […]

GIP(1-42) = target: T1, GIP(1-42) (Homo sapiens, UniProt P09681); experiment: Sandwich ELISA, reactivity with active GIP; format: binding; conditions: biotinylated antibody 1 μg/mL as detection antibody, GIP 8.2 to 2000 pg/mL, FIG. 1
T1 sequence (P09681 52-93): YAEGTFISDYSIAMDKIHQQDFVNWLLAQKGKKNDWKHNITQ
Protocol: (§4) The reactivity between the monoclonal antibody prepared in Production Example 1 and active GIP was confirmed by ELISA. The amino group of the anti-active GIP monoclonal antibody was biotinylated with NH2 group biotinylation kit (manufactured by Dojindo Laboratories). ELISA was performed using the produced biotinylated anti-active GIP monoclonal antibody at 1 μg/mL instead of a detection antibody, GIP detection antibody (biotinylated anti-total GIP monoclonal antibody), included in Human (total) GIP ELISA kit (manufactured by EMD Millipore Corporation). A […] dilution series of GIP(1-42) or GIP(3-42) was prepared in 6 steps (8.2 to 2000 pg/mL) with a 2000 pg/mL solution as the highest concentration. By using an anti-total GIP monoclonal antibody (included in Human GIP (total) ELISA kit manufactured by EMD Millipore Corporation) as a capture antibody, the biotinylated anti-active GIP monoclonal antibody as a detection antibody, and a peroxidase-streptavidin conjugate for detection, sandwich ELISA was conducted to prepare a calibration curve with GIP concentration on the X-axis and 450 nm-590 nm absorbance on the Y-axis (FIG. 1).

[3] = test system: C57BL/6J mice (107-week-old); experiment: Novel object recognition (long-term memory) test in aged mice, Example 3; format: in vivo, mouse; conditions: aged C57BL/6J mice (107-week-old), 0.5 mg/kg i.p. once a week, 5 weeks after start; compared to control group; FIG. 6
Protocol: (§5) Four-week-old C57BL/6J male mice (CLEA Japan, Inc.) were transferred (room temperature: 23° C., humidity: 55±10%, light period: 7:00 to 19:00) and were fed with food (D12450K, Research Diets, Inc.) and water ad libitum for 111 weeks.
(§6) The anti-active GIP antibody produced in Production Example 1 was dissolved in physiological saline at a concentration of 0.05 mg/mL to give an anti-GIP antibody solution.
(§7) Physiological saline (control group) or the anti-GIP antibody solution (0.5 mg/kg body weight) (anti-GIP antibody administration group) was intraperitoneally administered to C57BL/6J mice (107-week-old) once a week (9:00 to 10:00 a.m.), 6 times in total.
The test was performed 5 weeks after the start of the administration to measure the long-term memory and learning ability (reference memory). […] On the following day, two identical objects (rubber objects wrapped with blue rubber tape: columns each having 4 cm diameter and 3.5 cm height) were placed in the box (at a position with a space of 10 cm in length and 10 cm in width from the wall), and the behavior of the mouse was video-recorded for 5 minutes to measure the number of recognitions (the number of times the mouse approached each object within 1 cm) (training trial). […]

[4] = target: T2, PEGylated N-terminus 15 amino acids of active GIP (GIP(1-15)) (Homo sapiens, UniProt P09681); experiment: Hybridoma screening/cloning ELISA with immobilized antigen (1); format: binding; conditions: hybridoma culture supernatant, immobilized PEGylated GIP(1-15)
T2 construct: PEGylated N-terminus 15 amino acids of active GIP (GIP(1-15)); made in house; host or cells: peptide synthesis (no expression host)
Protocol: (§8) Polyethylene glycol was added to N-terminus 15 amino acids of active GIP (GIP(1-15)) (PEGylation (polyethylene glycolation)), and keyhole limpet hemocyanin (KLH) was then chemically bonded thereto to produce KLH-linked PEGylated GIP (1-15) as an immunogen.

GIP(3-42) = target: T3, GIP(3-42) (Homo sapiens, UniProt P09681); experiment: Sandwich ELISA, cross-reactivity with inactive GIP; format: binding; conditions: biotinylated antibody 1 μg/mL as detection antibody, GIP 8.2 to 2000 pg/mL, FIG. 1
T3 sequence (P09681 54-93): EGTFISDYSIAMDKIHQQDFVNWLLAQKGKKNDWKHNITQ
Protocol: as §4

[5] = target: T4, PEGylated N-terminus 13 amino acids of inactive GIP (GIP(3-15)) (Homo sapiens, UniProt P09681); experiment: Hybridoma screening/cloning ELISA with immobilized antigen (2); format: binding; conditions: hybridoma culture supernatant, immobilized PEGylated GIP(3-15)
T4 construct: made in house; host or cells: peptide synthesis (no expression host)
Protocol: as §8

[6] = test system: C57BL/6J mice (107-week-old); experiment: Y-maze (short-term memory) test in aged mice, Example 3; format: in vivo, mouse; conditions: aged C57BL/6J mice (107-week-old), 0.5 mg/kg i.p. once a week, 6 times; compared to non-administration and control group; FIG. 5
Protocol: as §5, §6, §7
as §3, with “1 week” for “10 days”, “1 week” for “20 days”, “two administrations), 3 weeks after the start (after four administrations), and 5 weeks after the start (after six” for “seven”, “arms.” for “arms. The score of short-term memory and learning ability was evaluated by the spontaneous alternation behavior change rate (see the following calculation formula).”

Molecule: GIP: Mouse-derived GIP (manufactured by AnaSpec, Inc.) dissolved in physiological saline at 500 nM (YAEGTFISDYSIAMDKIRQQDFVNWLLAQRGKKSDWKHNITQ; Gastric inhibitory polypeptide; UniProt P48756 44-85, looked up)
novel object recognition rate (long-term memory and learning ability) (db/db mice [1]): a decrease in the novel object recognition rate (long-term memory and learning ability) was observed | spontaneous alternation behavior change rate (short-term memory and learning ability) (db/db mice [2]): a decrease in the spontaneous alternation behavior change rate (short-term memory and learning ability) was observed

ELISA reaction with antigen (1) for measurement [4]: positive for the antigen (1) | ELISA reaction with antigen (2) for measurement [5]: negative for the antigen (2)
B1: monoclonal antibody prepared in Production Example 1: anti-active GIP monoclonal antibody produced by hybridoma 9B9H5-B9 line; H-chain variable region SEQ ID NO: 2, L-chain variable region SEQ ID NO: … (antibody, listed as Mus musculus, V domains shown)
VH: QVQLQQPGAELVKPGASVKLSCKASGYTFTSFWMHWVIQRPGQGLEWIGEMNPSDGRTHFNEKFKTKATLTIDTSSNTAYMELNSLTSEDSAVYYCARRMEDWGQGTLVTVSA
VL: DIKMTQSPSSMYASLGERVTITCKASQDINSYLGWFQQKPGKSPKTLIYGANRLVDGVPSRFSGSGSGQDYSLTISSLEYDDMGIYYCLQYDEFPLTFGAGTKLELKR
reactivity with GIP(1-42) (450 nm-590 nm absorbance) (GIP(1-42)): capable of specifically detecting GIP(1-42) | novel object recognition rate (long-term memory and learning ability) [3]: an increase in the novel object recognition rate (long-term memory and learning ability) was observed | cross-reactivity with GIP(3-42) (450 nm-590 nm absorbance) (GIP(3-42)): does not show cross-reactivity with GIP(3-42) | spontaneous alternation behavior change rate (short-term memory and learning ability) [6]: an increase in the spontaneous alternation behavior change rate (short-term memory and learning ability) was observed
